The values that follow come from a protein production outcome set (Wang et al. 2014).

This data set can be described thus: label from the status in PepcDB records.
On to “MMRHSSLRLIIGGLILLLFVLNVFSKEQGSHSHKRSHSAKRFSRDSNSARERRPNIILILTDDQDVELGSLNFMPRTLRLLRDGGAEFRHAYTTTPMCCPARSSLLTGMYVHNHMVFTNNDNCSSPQWQATHETRSYATYLSNAGYRTGYFGKYLNKYNGSYIPPGWREWGGLIMNSKYYNYSINLNGQKIKHGFDYAKDYYPDLIANDSIAFLRSSKQQNQRKPVLLTMSFPAPHGPEDSAPQYSHLFFNVTTHHTPSYDHAPNPDKQWILRVTEPMQPVHKRFTNLLMTKRLQTLQSVDVAVERVYNELKELGELDNTYIVYTSDHGYHLGQFGLIKGKSFPFEFDVRVPFLIRGPGIQASKVVNEIVLNVDLAPTFLDMGGVPTPQHMDGRSILPLLLSRNRAVRDNWPDSFLIESSGRRETAEQIAESRARLQIERRNMKLANSSLLEDFLEGAGESTTIVSSSSTAATLMSSTAQQPEDGEEEVETDNEEDDVDGDGAMDSSAAALEEDDLDDAAFEEGDEELDQEFQQNNDLPLAPYITKMMRLNSECSDPALLKNCLPGQKWKCVNEEGRWRKHKCKFHLQLEHQLAAMPRKQYQRNCACFTPDGVVYTKIRAPSAGLHRVNKRTHNGPGRRRNKREVFHTELPDEMEELLDLHQVVDQLVDHTHRSKRDLPASSNETIAQVIQQIQSTLEILELKFNEHELHASNSSGNSYERGEKYTKSGGHRCFVDATTAKVNCSNVIYDDEKTWRTSRTQIDMLIKLLKDKIGKLKEMKKQLRESNKQALAAGRRNDNRRRNDQSVLDSGAGPEFNMSYFTEISSTPRSNVVGQTEVFQGYGSASAFDSLEQTQSHRFTPRAECYCEPDVGENHADSKEMAREARRKLKEERQRKKERKRIKKARLEKECLSEKMNCFSHDNQHWRTAPLWNDSPFCFCMNANNNTYSCLRTINGTHNFLYCEFTTGLITFYNLTIDRFETINRAAGLTPGERSHMHDALDQLKSCRGRSCSIRRHQNHLEGGSSAPLLPINQVHRNNKRKHSPLAGAVGNYAFVGPRLDMEALPPIKRRKLSKYNRLTGSQQSHMKRRPWKQTPLQQSPRFLRTHSVTPAQA”, for which the protein production result is “failed”.
As for “MEYGHHARPDSKRPLDEGSPAAAGLTSKKANEALTRNRELTTVLVKNLPKSYNQNKVYKYFKHCGPIIHVDVADSLKKNFRFARIEFARYDGALAAITKTHKVVGQNEIIVSHLTECTLWMTNFPPSYTQRNIRDLLQDINVVALSIRLPSLRFNTSRRFAYIDVTSKEDARYCVEKLNGLKIEGYTLVTKVSNPLEKSKRTDSATLEGREIMIRNLSTELLDENLLRESFEGFGSIEK”, the entry is “not failed”; as for “MPHAVQGQPENAVHPPQGTAWPGLEPPEGFLMANPRLSRRHVRRMRSERPPPTTRPPDWRFPMKSTLNLLLTVSLALSGAGLAQTAPNVPTQAAPTTAAPANAAQLAAEARDLTNRARTTYPAGSASIDQPLWKQAADRAEAAVSAAPNNPDVLRLRAQIYTEVGFWKQAESSWRAYFAVAPVAAGQNEARAAGNVQYNLGYAAYTRGQSAQAAAYFKACLTLDPQSVPCATWAARTALESGDYALAQNLYTQALSLAPTDKTLNYFAQVARNASTYGPAATQAFSRAYASLDAGRRAEALAGFQEAARSAPNFPEAQREAGRLALEAGDTGAALSAYQALAALPGATDSDRYNLGLAQEGQQYGLRAVQTFRTAYGKYSAGDKAGAEAGFLQATTASANYGKAWAWLGRVRYEAKNYAGAAEAYGRAVALDPGDKTSAYFLKLAQQGK”, “failed”.
As for “MNNLFAAPTPEEHAALLQEIGPLPLSGQAWPDWVRILAWIVLAVIGVQIVTTAIGLPPGQVNPVLAGTIILCFLGLALVSWHMQISVTRIDESGLRQTWITRREVAWQDIQFAKFVPLLFSKRLVVFTRHGRPIVFQGGTRDLQVAFAKISLLYRRKR”, the entry is “failed”; as for “MNFNRFTQRAKKAIDLAFESAKSLGHNIVGSEHILLGLLREEEGIAAKVLSKVGFTEAYLEGKIVDMEGKGEEISEDIVLSPRSKQILELSGMFANKLKTNYIGTEHILLAIIQEGEGIANKILNYAGVNDRTLAQLTIDMMG”, “not failed”.
As for “MASYSLVESNSFGSENWCLKLQPSYKHGLLTGLSNGEIRLLDWSTGKSVQKIKASETAINDMKVIGSDFSAGHLVSSASIDAVKVFDIRTNDRIAQIQNEANSPFISLDSRHGLLACGTELQGIDAAVYIYDIRKWDTPLRSLIDSHHDDVTCIKFHPSDVNILLSGSTDGYTNIYDLKQDEEEDALHQVINYASIHSCGWLSPKRIFTLSHMETFAIHELNDKSDELKEPQPLDFGDVREIWNCDYVVDIYPGLIATGKTQENCGELCLLPFKDEKVDTENGIVIPHAHGDEVVRDIFIPAQHSNMLYSCGEDGCVKIWENKQGPLDIPENFWDYSKKMNVLGDDDREGSINLDEPLIIQKESVSTRPRKEKHKKAKKHSMKSRFKPY”, the entry is “failed”.
In the case of “MNDTLTLDEVVEFAENPEPRCPCVLLLDTSGSMQGAAIEALNQGLLSLKDELMKNSIAARRVEIAIVTFDSHINVIQDFVTADQFNPPILTAQGLTSMGAGIHKALDMVQERKSLYRANGVAYYRPWVFMITDGEPQGELDHLVEQAALRLQGDEVNKRVAFFSVGVENANMTRLNQIAVRTPLKLKGLNFIEMFVWLSASMSAVSHSQIDEQVALPPIGWGSI”, the protein production entry is “failed”.
Under “FRLIGKHRLPRVDSAAKSDGSALYTQDMKLPGMLVAVVAHAPRLGAAVARVDDAAARAVPGVRAVVRFGGAALRHAGVAVLATNTWAARAGRDALRIEWDEGP” stands “failed”.
Take “MILKTKLFGKVYQFTSVKEVLAKANEEKSGDKLAGVAANSAEERVAAKVVLSELSLNDLFNNPVVDYDEDEVTRIIIDQVNMRIFESIKHWTVAELREFILSSETTDFDIKRISRGLTSEMIAAVCKLMSNMDLIVGAKKINIEKTANTTIGRPGTFSNRLQPNHPTDNVDGIMASVMEGLSYGAGDALIGLNPVDDSTESVKRILNKFEEFRSEWEIPTQTCVLAHVTTQMEAMRQGAPTGLVFQSIAGSEKGNTAFGLNAEILAEAQDLALHSGQAAGPNVMYFETGQGSELSSEANFGADQVTMEARCYGLAKKFDPYIVNTVVGFIGPEYLYDSKQVIRAGLEDHFMGKLTGISMGCDVCYTNHMKADQNDMENLAMLLATAGCTYIMGIPHGDDVMLNYQTTGFHETATIRETLGLRPIKEFEEWMEKMGLMENGKLTSRAGDASVFIK”: the protein production entry is recorded as “not failed”.
As for “MIILIWMVIMRHVFRLNLWFVFLATFLFTPYLYAEPIKEPSRPKIALVLAGGGAKGAAHIGVLKALEELNIPIDIITGTSMGAYVGGLYATGKSASEIEAYLHTVDWYSGYQDEVGREEKNSRDKKYEDRFAINPSLGIRKEGVKSPKSAIQGQNMLKILRETSGNPVSVASFDDFPIRYRSVATDIVSMEEVVIDHGLLVDAMMASMSVPGALPPYEFEDKLLIDGGVTNNMPVELAKEMGADIVIAVDISSNYMTKEQIGSLFDVASQLTNFMVKRSTQEQAEFLTDKDILLQPRVGDIETTDFSSMPRAYQEGYDTVMTLKSRLQSLAVAPNEYAQYQNKIKQQSANVRLAQGAIIDKVEVENRSHYESDKLERFIQFEQGTLLSSDYIEDKIHALYATNRFETITYLVEEDNNENVLKVTAKEKEWGPNYLNFRFFLEEDFDTHSQYGLGASINFTDLNDYGAELRTNVELGTDKIFDATIHYPFYLNHHFFVQSNMMYSDKKRSISTSSLEDKEPNSSMSFYPVNLRDFTVDALFGVEATKDQQLKTGILYARGSHELTGLSAYGRTEYERLGATLEYNFDSLDSISLPTHGSLINARYLYAFDKVNSRDVEGSDHSEQYIDEFTAEALFARSIARHTFISSAEYGITNSDDYLVPVNPIELGGFNHLSGLPRNSLIGANKIYGRLTYRYRWFENDLGMFKTAVYLGASAEYGGLWSMKSTDISSAPLIFSGSLFGGIDTPIGPIILSYGRAENGLDSVYLIVGNVE”, the entry is “failed”.
As for “MDYCYTGDTHEKLFAAYRADEEPFPTQTQMEFPRREHRRPEIDILKRLFFPTCWNAAELVRDELAVLDRLDTLGGLFFAGIRPYSGSDPAETVDAVIDQLPAVRTRLKKDVEAAFKGDPAAKTYMEIIRSYPGFMAILVQRVAHTLYEAGASEYARELTEYAKTETGIDIHPGAEIGDHFFIDHGTGVVIGETTTVGEWVRLYQDVTLGALHFEADESDEHRLKKGYKRHPDIGDHVVIGAGTKVLGAISVGDHVSIGANSWVTDDIPDDTKVYVTDHPTQERKRTN”, the entry is “failed”; as for “MVPPKLKQALELFKSLPKELRSQVLLEYAAKVPPPPPGVELERVHECQTPFFVHADVEGGKVRLYFHVPDEAPTVKAFAGLLREGLEGESPEAVLEVPPGFYRGYGLEEFFTPLRLRGLEAALLRLQAQVRKALTS”, “not failed”.
As for “MTTQSQFLVNLSYGGLASQSNLRANNRVSPSSCQITRTNRSWALPVSFKVEKFQLQRGRRRRGSPCFGESEGLVKNGIGDADGIIIVDHGSRRRESNLMLEEFVKMFKEKTGYPIVEPAHMELAEPSIKDAFSLCVQQGAKRVVVSPFFLFPGRHWHTDIPSLTADAAKEFSGISYLITAPLGPHNLLLDVVNDRIQHCLSHVEGDADECLVCAGTNKCKLYNSS”, the entry is “failed”; as for “MDSVTLACGNGGKETNALIERVFMPYLKEWIVAFDEDAPKFEASGEYCVSTDSFVITPLIFNGGDIGKLCVCGSANDVSVQGGEPLYLNMGFILEEGLEISLLKQILQSIQKELFKANLKLLSLDTKVVPKGSVDKLFINTTCIGKIIKPGISSYHLQQGQAIILSDTIANHGASLFAMRNEIKLKTNLESDCQLLYPLLKPLFLSDLKIDALRDATRGGLASVLNEWANSSRVKIVIEEEKIPLKEETKGICEILGLEPYALANEGVFVLALNQKDAPKALEILKSNEKAKNACVIGKVFENPYPSVVLKNAWGFERILEVPEGELLPRIC”, “failed”.
For “MALLKSPIFGICFSLILYTIGQDLFKKSKGFFLLQPLFFAMVAGIIVLVLLAKGLGTDVKTLYTQAYKPGGDLIFWFLNPATIAFAVPLYKKNDAVKKYWKEIISSLIIGMVVSLIIIVAISKAIGLSQASTASMLPQAATTAIALPIAHAIGGNTAITAMACILNAVIIYALGKKLVALFHLNKSEIGVGLGLGTSGHTVGAAFALELGELQGAMAAIAVVVIGLVVDLVIPIFSYMIGLVH”, the protein production result was “failed”.
As to “MLPGLKYIDRIGVDDVLVWLRKGIVWIVLAIVLCVGGALTYASMTPPRYKAYTDIVVNPSNLNVVNDGVFSPNQQRDTQILEVESKLRTITSRNVLARVVDELKLDQDPEFVSPPPLARLKAMFSSKPDDGDNRVGALRSLGDRVTAERDPRSFVVTLSVWTNDAEKSVAVSKAIVKAFESELFQTNSDSSQRVVDDLKKRLEEMRENVTIAEKRVADFRRENGLQENNGQLVSNLASGELNAQVLATQQRLIQEESRLKQMEAAIAQNRTQSDAIFDSQTMNTIRAQYSTLQQQIGAMTLTYGARHPRLATAGAERAMLERGMADEARRILQAAKINVAEARSSLDALRLKAVAERANVFTDNDAQVRLRDLDRDARSAAAIYETYLTRSRQLAEQQSIDSTNVRVISQPVAPNSRSWPPGKLTFLIAGGMGGLFLGLAIAVALGLWGYLRRDDHAEAAARYA”, the protein production entry is “failed”.
For the sequence “MKNRYIILSILLFSVACRKFEPYPVFSKLALKKAFVDLGTHKLATFSVIRNSNYLVVFESGLGDDHTIWNSSNIALKAADTIDVVTYDRANRGQSGNGPVPRDVARLQSELGSVIDSFANGRKVVLIGHSLGGFMIRAWAVNNPTKVAGMLFIDPSHEKAGLDSAQNQQAEDYMYGKWSSYGTNFGAALESREWVEDNMYMATLGNLPDVPVIVLTAMKVDPPNKVEILKPWYDAHESLGTGVTDFTHVSIPNSGHMVMIDQPQILLNYIHVLLAKLH”, the protein production result is “failed”.
Under “MRVAVITDSHGNAYALEATLREVHAAAPDLIVNLGDQIEGCADPARAAALQADLGALEVRGNNEEKLWPDGRRTPLAQEVGAWLAAQVSPADRERLAALPLTARVEGLFACHGTPESAWDSLLWVWDAAGGFYRSRDPRELRRMVEPLGAEVVVCGHTHRAGATRVGDTLVVNCGAISDQVDGDPRARWTLLERRGGGWNVEFHNVAYDIAGAVAWARAHSPFGDFEAHLLESGEMTGRGTGGI” stands “failed”.
